Key:
[1] = molecular target: T1, hemagglutinin (HA) of influenza A/Solomon Islands/3/06 H1N1 (Influenza A virus A/Solomon …); test: ELISA, inactivated whole virions coated; transfection supernatant set 5
[2] = molecular target: T2, hemagglutinin (HA) of influenza A/Japan/305/57 H2N2 (Influenza A virus A/Japan/305/1957 …, UniProt P03451 16-562); test: as above
[3] = molecular target: T1, hemagglutinin (HA) of influenza …; test: ELISA, inactivated whole virions coated; transfection supernatant set 3
[4] = molecular target: T2, hemagglutinin (HA) of influenza …; test: as above
[5] = molecular target: T1, hemagglutinin (HA) of influenza …; test: ELISA, inactivated whole virions coated; transfection supernatant set 2
[6] = molecular target: T2, hemagglutinin (HA) of influenza …; test: as above
[7] = molecular target: T1, hemagglutinin (HA) of influenza …; test: ELISA, inactivated whole virions coated; transfection supernatant set 1
[8] = molecular target: T2, hemagglutinin (HA) of influenza …; test: as above
[9] = molecular target: T1, hemagglutinin (HA) of influenza …; test: ELISA, inactivated whole virions coated; transfection supernatant set 4
[10] = molecular target: T2, hemagglutinin (HA) of influenza …; test: as above
[11] = molecular target: hemagglutinin (HA) on live influenza A virus A/Wisconsin/67/05 H3N2 (Influenza A virus A/Wisconsin/67/2005 …); test: cell-based or functional assay
[12] = molecular target: hemagglutinin (HA) on live influenza A virus A/Solomon Islands/3/06 H1N1 (Influenza A virus A/Solomon …); test: cell-based or functional assay
[13] = molecular target: hemagglutinin (HA) on live influenza A virus A/California/4/09 H1N1 (Influenza A virus A/California/04/2009 …); test: cell-based or functional assay
[14] = molecular target: recombinant homotrimeric HA, A/California/4/09 H1N1 (Influenza A virus A/California/4/09 …); test: trimeric HA microarray, transfection set 5
[15] = molecular target: recombinant homotrimeric HA, A/Vietnam/1203/04 H5N1 (Influenza A virus A/Vietnam/1203/04 …); test: trimeric HA microarray, transfection set 5
[16] = molecular target: recombinant homotrimeric HA, A/swine/Ontario/01911-2/99 H4N6 (Influenza A virus …); test: trimeric HA microarray, transfection set 5
[17] = molecular target: recombinant homotrimeric HA, A/Solomon Islands/3/06 H1N1 (Influenza A virus A/Solomon …); test: trimeric HA microarray, transfection set 5
[18] = molecular target: recombinant homotrimeric HA, A/Wisconsin/67/05 H3N2 (Influenza A virus A/Wisconsin/67/05 …); test: trimeric HA microarray, transfection set 5
[19] = molecular target: recombinant homotrimeric HA, A/South Carolina/1/18 H1N1 (Influenza A virus A/South Carolina/1/18 …); test: trimeric HA microarray, transfection set 5
[20] = molecular target: recombinant homotrimeric HA, A/Japan/305/57 H2N2 (Influenza A virus A/Japan/305/57 (H2N2)); test: trimeric HA microarray, transfection set 5
[21] = molecular target: recombinant homotrimeric HA, A/Indonesia/5/05 H5N1 (Influenza A virus A/Indonesia/5/05 …); test: trimeric HA microarray, transfection set 5
[22] = molecular target: T1, hemagglutinin (HA) of influenza …; test: cell-based or functional assay
[23] = molecular target: T3, M2 protein of A/Puerto Rico/8/34 (H1N1), on virus particles, infected MDCK cells or transfected cells (influenza A virus A/Puerto Rico/8/34 …, UniProt P06821 1-97); test: ELISA on purified A/Puerto Rico/8/34 virus (FIG. 14a)
T3 construct: whole, on cells

B1: TCN-504 (3251_K17) (antibody, V domains shown)
VH: QVQLQESGPGLVKPSETLSLTCAVSGVSISNIDFYWGWIRQPPGKGLEWIGNIYYTGITFYNPSLSSRVAISIDTSKNQFSLTLTSVTAADTAMYYCARHYGDSEAINDAFDIWGQGTMLTVSS
VL: EIVMTQSPATLSVSPGERATLSCRASQSVGNSLAWYQQRPGQAPRLLIYGASTRATGIPPRFSGSGSGTEFTLTISSLQTEDFAVYYCQQYINWRPLSFGGGTKVEIK
OD450 [1]: 3.6 OD450
OD450 [2]: 3.59 OD450
OD450 [3]: 3.63 OD450
OD450 [4]: 3.64 OD450
OD450 [5]: 3.65 OD450
OD450 [6]: 3.62 OD450
OD450 [7]: 3.65 OD450
OD450 [8]: 3.65 OD450
OD450 [9]: 3.52 OD450
OD450 [10]: 3.51 OD450

B2: TCN-542 (5079_A16) (antibody, V domains shown)
VH: QVQLQESGPGLVKPSQTLSLTCTVSGGSISSGNYYWNWVRQHPGKGLEWIGYIYYRGSTFYNPSLKSRVTISIDTSKNQFSLRLSSVTAADTAVYYCAKDTRSSLDNYQYGMDVWGQGTTVTVSS
VL: QTVVTQEPSLTVSPGGTVTLTCASSTGAVTSSYFPNWFQQKPGQAPRPLIYSTTIRHSWTPARFSGSLLGGKAALTLSGVQPEDEADYYCLLYSGGDPVAFGGGTKLTVL
% Neutralization [11]: 8%
% Neutralization [12]: 99%
% Neutralization [13]: 15%

B3: TCN-560 (5084_P10) (antibody, V domains shown)
VH: EVQLVESGGGLVQPGGSLRLSCAASGFIFRNYWMSWVRQAPGKGLEWVANIKQDGREKYYVDSLRGRVNISRDNAENSLYLHMNSLRVEDTAVYFCARARMVVVTGDGFDVWGHGTMVTVSS
VL: DIQMTQSPSSLSASVGDRVTITCRASQNIKRYFNWYQQKPGKAPKLLIYAASNLENGVPSRFSGSGSGTDFTLTISSLQPEDFATYYCQQSFSKSWTFGQGTNVDIK
Trimeric HA Binding RLU [14]: 31100 RLU
Trimeric HA Binding RLU [15]: 19500 RLU
Trimeric HA Binding RLU [16]: 16800 RLU
Trimeric HA Binding RLU [17]: 22400 RLU
Trimeric HA Binding RLU [18]: 55400 RLU
Trimeric HA Binding RLU [19]: 30500 RLU
Trimeric HA Binding RLU [20]: 25900 RLU
Trimeric HA Binding RLU [21]: 17000 RLU

B4: TCN-523 (5248_A17) (antibody, V domains shown)
VH: QVQLVQSGAEVKKPGSSVKVSCKASGGSFSNYAFSWVRQAPGQGLEWMGGTIPLLGTTNYAQKFQGRVTISADQFTSTAYMELGSLRSEDTAVYYCTRRKMTTAFDSWGQGTLVTVSS
VL: QPVLTQPPSASASLGASVTLTCTLSSAYSNYKVDWYQQRPGKGPRFVMRVGTGGIVGSKGDGIPDRFSVLGSGLNRYLTIKNIQEEDESDYHCGADHGSGSNFVSPYVFGGGTKLTVL
OD450 [1]: 3.62 OD450
OD450 [2]: 2.56 OD450
OD450 [3]: 3.59 OD450
OD450 [4]: 3.47 OD450
OD450 [5]: 3.67 OD450
OD450 [6]: 1.39 OD450
OD450 [7]: 3.59 OD450
OD450 [8]: 1.69 OD450
OD450 [9]: 3.43 OD450
OD450 [10]: 1.73 OD450
% Neutralization [22]: 69%

B5: TCN-031 (23K12) (antibody, V domains shown)
VH: EVQLVESGGGLVQPGGSLRISCAASGFTVSSNYMSWVRQAPGKGLEWVSVIYSGGSTYYADSVKGRFSFSRDNSKNTVFLQMNSLRAEDTAVYYCARCLSRMRGYGLDVWGQGTTVTVSS
VL: DIQMTQSPSSLSASVGDRVTITCRTSQSISSYLNWYQQKPGKAPKLLIYAASSLQSGVPSRFSGSGSGTDFTLTISGLQPEDFATYYCQQSYSMPAFGQGTKLEIK
EC50 [23]: ~0.1 µg/mL

B6: TCN-556 (5089_K12) (antibody, V domains shown)
VH: QVQLVQSGAEVKKPGASVKVSCKASGYTFIGYDMHWVRQAPGQGLEWMGWINAKRGGTNYAQKFQGRVTMTRDTSISTAYMELNSLRSDDTAVYYCARGVGSRTTIFGVLNPEFDYWGQGTLVTVSS
VL: QSALTQPPSASGSPGQSVTISCTGSSSDVGGYDYVSWYQQHPGKAPKLLIYEVTKRPSGVPDRFSGSKSGNTASLTVSGLQAEDEADYYCSSYAGNYNHVFGPGTKVTVL
Trimeric HA Binding RLU [14]: 20900 RLU
Trimeric HA Binding RLU [15]: 17400 RLU
Trimeric HA Binding RLU [16]: 19300 RLU
Trimeric HA Binding RLU [17]: 23400 RLU
Trimeric HA Binding RLU [18]: 44700 RLU
Trimeric HA Binding RLU [19]: 32700 RLU
Trimeric HA Binding RLU [20]: 22800 RLU
Trimeric HA Binding RLU [21]: 15200 RLU

B7: TCN-032 (8I10) (antibody, V domains shown)
VH: QVQLQESGPGLVKPSETLSLTCTVSGSSISNYYWSWIRQSPGKGLEWIGFIYYGGNTKYNPSLKSRVTISQDTSKSQVSLTMSSVTAAESAVYFCARASCSGGYCILDYWGQGTLVTVSS
VL: DIQMTQSPSSLSASVGDRVTITCRASQNIYKYLNWYQQRPGKAPKGLISAASGLQSGVPSRFSGSGSGTDFTLTITSLQPEDFATYYCQQSYSPPLTFGGGTRVEIK
EC50 [23]: ~0.1 µg/mL

B8: TCN-546 (5089_L08) (antibody, V domains shown)
VH: QVQLQQWGAGLLKPSETLSLTCGVYGGSLSDYYWSWIRQPPGKGLEWIGEINHSGGTNYNPSLKRRVTISVDTSKKQFSLKMNSVTAADTAVYYCARGTDPDTEVYCRAGNCAAFDFWGQGTLVTVSS
VL: EIVLTQSPGTLSLSPGERATLSCRASHFVIGRAVAWYQQKPGQAPRLLIYGASSRATGIPDRFSGSGSGTDFTLTISRLETEDFAVFYCQHYGSSPRYAFGQGTKLEIK
% Neutralization [11]: 100%
% Neutralization [12]: 98%
% Neutralization [13]: 0%
